Each block holds one molecule with its values, some of them ahead of it.
Tests used:
[1] = target: PAL/TAL from Rhodotorula glutinis (RgPAL) (Rhodotorula glutinis); test: SEC-MALS; analytical SEC on Superdex200 Increase 10/300 GL in filtered PBS pH 7.4, 50 ul of ca. 1-2 mg/ml enzyme, 0.75 ml/min, miniDAWN MALS detector; self-association (tetramer and larger oligomers)
[2] = target: PAL/TAL from Trichosporon cutaneum (TcPAL) (Trichosporon cutaneum); test: as above
MEGA_A3 [3] = test system: T1, MEGA_A3; test: trans-cinnamic acid formation at […] nm, Michaelis-Menten fit; format: biochemical, synthetic construct; details: 50 mM Tris-HCl, pH 9.2, 37 °C; read-out: L-Phe^a / KM^c
T1 construct: N-terminal 6xHis tag, E. coli BL21(DE3); tetramer

PAML_A2 = test system: T2, PAML_A2; test: as above; format: biochemical, synthetic construct; details: 50 mM Tris-HCl, pH 9.2, 37 °C; read-out: L-Phe^a / KM^c
T2 construct: N-terminal 6xHis tag, E. coli BL21(DE3); tetramer

MEGA_A1 [4] = test system: T3, MEGA_A1; test: as above; format: biochemical, synthetic construct; details: 50 mM Tris-HCl, pH 9.2, 37 °C; read-out: L-Phe^a / KM^c
T3 construct: N-terminal 6xHis tag, E. coli BL21(DE3); tetramer

PAML_A1 [5] = test system: T4, PAML_A1; test: as above; format: biochemical, synthetic construct; details: 50 mM Tris-HCl, pH 9.2, 37 °C; read-out: L-Phe^a / KM^c
T4 construct: N-terminal 6xHis tag, E. coli BL21(DE3); tetramer

MEGA_A3 [6] = test system: T1, MEGA_A3; test: p-coumaric acid formation at […] nm, Michaelis-Menten fit; format: biochemical, synthetic construct; details: 50 mM Tris-HCl, pH 9.2, 37 °C; read-out: L-Tyr^a / KM^c
MEGA_A1 [7] = test system: T3, MEGA_A1; test: as above; format: biochemical, synthetic construct; details: 50 mM Tris-HCl, pH 9.2, 37 °C; read-out: L-Tyr^a / KM^c
PAML_A1 [8] = test system: T4, PAML_A1; test: as above; format: biochemical, synthetic construct; details: 50 mM Tris-HCl, pH 9.2, 37 °C; read-out: L-Tyr^a / KM^c
purified protein [9] = substrate: N[C@@H](Cc1ccc(O)cc1)C(=O)O; test: purified protein; format: biochemical, Rhodotorula glutinis; details: 50 mM Tris-HCl, pH 9.2, 37 °C
purified protein [10] = substrate: N[C@@H](Cc1ccccc1)C(=O)O; test: purified protein; format: biochemical, Rhodotorula glutinis; details: 50 mM Tris-HCl, pH 9.2, 37 °C

Molecule: N[C@@H](Cc1ccccc1)C(=O)O [L-phenylalanine]
- Km (MEGA_A3 [3]): 350 ± 30 µM
- Km (PAML_A2): 690 ± 150 µM
- Km (MEGA_A1 [4]): 3.83 ± 0.97 mM
- Km (PAML_A1 [5]): 4.48 ± 0.62 mM

Molecule: N[C@@H](Cc1ccc(O)cc1)C(=O)O [L-tyrosine]
- Km (MEGA_A3 [6]): 50 ± 10 µM
- Km (MEGA_A1 [7]): 400 ± 20 µM
- Km (PAML_A1 [8]): 2.69 ± 0.01 mM

B1: RgPAL (Rhodotorula glutinis) (protein)
chain: MAPSVDSIATSVANSLSNGLHAAAAANGGDVHKKTAGAGSLLPTTETTQLDIVERILADAGATDQIKLDGYTLTLGDVVGAARRGRSVKVADSPHIREKIDASVEFLRTQLDNSVYGVTTGFGGSADTRTEDAISLQKALLEHQLCGVLPTSMDGFALGRGLENSLPLEVVRGAMTIRVNSLTRGHSAVRIVVLEALTNFLNHGITPIVPLRGTISASGDLSPLSYIAASITGHPDSKVHVDGKIMSAQEAIALKGLQPVVLGPKEGLGLVNGTAVSASMATLALTDAHVLSLLAQALTALTVEAMVGHAGSFHPFLHDVTRPHPTQIEVARNIRTLLEGSKYAVHHETEVKVKDDEGILRQDRYPLRCSPQWLGPLVSDMIHAHAVLSLEAGQSTTDNPLIDLENKMTHHGGAFMASSVGNTMEKTRLAVALMGKVSFTQLTEMLNAGMNRALPSCLAAEDPSLSYHCKGLDIAAAAYTSELGHLANPVSTHVQPAEMGNQAINSLALISARRTAEANDVLSLLLATHLYCVLQAVDLRAMEFEHTKAFEPMVTELLKQHFGALATAEVEDKVRKSIYKRLQQNNSYDLEQRWHDTFSVATGAVVEALAGQEVSLASLNAWKVACAEKAIALTRSVRDSFWAAPSSSSPALKYLSPRTRVLYSFVREEVGVKARRGDVYLGKQEVTIGTNVSRIYEAIKSGRIAPVLVKMMA
notes: full-length codon-optimized gene, N-terminal 6xHis tag, pET22b(+), E. coli BL21(DE3); homotetramer; MIO cofactor from Ala-Ser-Gly
- Km (purified protein [9]): 0.28 ± 0.01 mM
- kcat (purified protein [9]): 1.71 ± 0.11 s⁻¹
- kcat/Km (purified protein [9]): 6300 ± 288 M⁻¹ s⁻¹
- Km (purified protein [10]): 1.35 ± 0.10 mM
- kcat (purified protein [10]): 8.95 ± 0.37 s⁻¹
- kcat/Km (purified protein [10]): 6660 ± 259 M⁻¹ s⁻¹

Further lines, results first:

- stoichiometry N [1]: 4
Molecule: PAL/TAL from Rhodotorula glutinis (RgPAL) (enzyme)

- stoichiometry N [2]: 4
Molecule: PAL/TAL from Trichosporon cutaneum (TcPAL) (enzyme)
